Results: publication PMC11189300 (2024)

B1: KNL1 residues 2,026–2,342 [human] / Mis12 complex (Mis12C), full length: MIS12, PMF1, NSL1, DSN1 [human] (parent complex)
chain 1: SAQNEREKLQIKIDEMDKILKKIDNCLTEMETETKNLEDEEKNNPVEEWDSEMRAAEKELEQLKTEEEELQRNLLELEVQKEQTLAQIDFMQKQRNRTEELLDQLSLSEWDVVEWSDDQAVFTFVYDTIQLTITFEESVVGFPFLDKRYRKIVDVNFQSLLDEDQAPPSSLLVHKLIFQYVEEKESWKKTCTTQHQLPKMLEEFSLVVHHCRLLGEEIEYLKRWGPNYNLMNIDINNNELRLLFSSSAAFAKFEITLFLSAYYPSVPLPSTIQNHVGNTSQDDIATILSKVPLENNYLKNVVKQIYQDLFQDCHFYH
chain 2: MSVDPMTYEAQFFGFTPQTCMLRIYIAFQDYLFEVMQAVEQVILKKLDGIPDCDISPVQIRKCTEKFLCFMKGHFDNLFSKMEQLFLQLILRIPSNILLPEDKCKETPYSEEDFQHLQKEIEQLQEKYKTELCTKQALLAELEEQKIVQAKLKQTLTFFDELHNVGRDHGTSDFRESLVSLVQNSRKLQNIRDNVEKESKRLKIS
chain 3: MAEASSANLGSGCEEKRHEGSSSESVPPGTTISRVKLLDTMVDTFLQKLVAAGSYQRFTDCYKCFYQLQPAMTQQIYDKFIAQLQTSIREEISDIKEEGNLEAVLNALDKIVEEGKVRKEPAWRPSGIPEKDLHSVMAPYFLQQRDTLRRHVQKQEAENQQLADAVLAGRRQVEELQLQVQAQQQAWQALHREQRELVAVLREPE
chain 4: MAGSPELVVLDPPWDKELAAGTESQALVSATPREDFRVRCTSKRAVTEMLQLCGRFVQKLGDALPEEIREPALRDAQWTFESAVQENISINGQAWQEASDNCFMDSDIKVLEDQFDEIIVDIATKRKQYPRKILECVIKTIKAKQEILKQYHPVVHPLDLKYDPDPAPHMENLKCRGETVAKEISEAMKSLPALIEQGEGFSQVLRMQPVIHLQRIHQEVFSSCHRKPDAKPENFITQIETTPTETASRKTSDMVLKRKQTKDCPQRKWYPLRPKKINLDT
chain 5: MTSVTRSEIIDEKGPVMSKTHDHQLESSLSPVEVFAKTSASLEMNQGVSEERIHLGSSPKKGGNCDLSHQERLQSKSLHLSPQEQSASYQDRRQSWRRASMKETNRRKSLHPIHQGITELSRSISVDLAESKRLGCLLLSSFQFSIQKLEPFLRDTKGFSLESFRAKASSLSEELKHFADGLETDGTLQKCFEDSNGKASDFSLEASVAEMKEYITKFSLERQTWDQLLLHYQQEAKEILSRGSTEAKITEVKVEPMTYLGSSQNEVLNTKPDYQKILQNQSKVFDCMELVMDELQGSVKQLQAFMDESTQCFQKVSVQLGKRSMQQLDPSPARKLLKLQLQNPPAIHGSGSGSCQ

Variants of: B1
Assay: ITC; syringe KNL1^WT; cell Mis12C^M1; parent: -12

| Variant | dG |
| --- | --- |
| chain 3 R195A, chain 3 V198L, chain 5 L290F | -10 |

Variants of: B1
Assay: ITC; syringe KNL1^M2; cell Mis12C^WT; parent: 1.56 nM

| Variant | Kd [nM] |
| --- | --- |
| chain 1 M231A, chain 1 S247W, chain 1 F250A, chain 1 K252E | 109 |

Variants of: B1
Assay: ITC; syringe KNL1^WT; cell Mis12C^M2; parent: 1.56 nM

| Variant | Kd [nM] |
| --- | --- |
| chain 3 R195E, chain 3 V198L, chain 5 L290F | 24.8 |

Variants of: B1
Assay: ITC; syringe KNL1^M1; cell Mis12C^WT; parent: 1.56 nM

| Variant | Kd [nM] |
| --- | --- |
| chain 1 M231A, chain 1 S247W, chain 1 F250A, chain 1 K252A | 140 |
